# Laboratory results taken from publication PMC10584835.
# B1: VE-cadherin, endogenous in HMEC (natural protein)
# chain: DWIWNQMHIDEEKNTSLPHHVGKIKSSVSRKNAKYLLKGEYVGKVFRVDAETGDVFAIERLDRENISEYHLTAVIVDKDTGENLETPSSFTIKVHDVNDNWPVFTHRLFNASVPESSAVGTSVISVTAVDADDPTVGDHASVMYQILKGKEYFAIDNSGRIITITKSLDREKQARYEIVVEARDAQGLRGDSGTATVLVTLQDINDNFPFFTQTKYTFVVPEDTRVGTSVGSLFVEDPDEPQNRMTKYSILRGDYQDAFTIETNPAHNEGIIKPMKPLDYEYIQQYSFIVEATDPTIDLRYMSPPAGNRAQVIINITDVDEPPIFQQPFYHFQLKENQKKPLIGTVLAMDPDAARHSIGYSIRRTSDKGQFFRVTKKGDIYNEKELDREVYPWYNLTVEAKELDSTGTPTGKESIVQVHIEVLDENDNAPEFAKPYQPKVCENAVHGQLVLQISAIDKDITPRNVKFKFILNTENNFTLTDNHDNTANITVKYGQFDREHTKVHFLPVVISDNGMPSRTGTSTLTVAVCKCNEQGEFTFCEDMAAQVGVSIQAVVAILLCILTITVITLLIFLRRRLRKQARAHGKSVPEIHEQLVTYDEEGGGEMDTTSYDVSVLNSVRRGGAKPPRPALDARPSLYAQVQKPPRHAPGAHGGPGEMAAMIEVKKDEADHDGDGPPYDTLHIYGYEGSESIAESLSSLGTDSSDSDVDYDFLNDWGPRFKMLAELYGSDPREELLY
# Target: N-terminal eGFP fused human CHFR mutant lacking forkhead-associated domain (human) (UniProt Q96EP1)
# Sequence of UniProt Q96EP1 (Q96EP1 whole entry, change not shown, the tested form may be a part): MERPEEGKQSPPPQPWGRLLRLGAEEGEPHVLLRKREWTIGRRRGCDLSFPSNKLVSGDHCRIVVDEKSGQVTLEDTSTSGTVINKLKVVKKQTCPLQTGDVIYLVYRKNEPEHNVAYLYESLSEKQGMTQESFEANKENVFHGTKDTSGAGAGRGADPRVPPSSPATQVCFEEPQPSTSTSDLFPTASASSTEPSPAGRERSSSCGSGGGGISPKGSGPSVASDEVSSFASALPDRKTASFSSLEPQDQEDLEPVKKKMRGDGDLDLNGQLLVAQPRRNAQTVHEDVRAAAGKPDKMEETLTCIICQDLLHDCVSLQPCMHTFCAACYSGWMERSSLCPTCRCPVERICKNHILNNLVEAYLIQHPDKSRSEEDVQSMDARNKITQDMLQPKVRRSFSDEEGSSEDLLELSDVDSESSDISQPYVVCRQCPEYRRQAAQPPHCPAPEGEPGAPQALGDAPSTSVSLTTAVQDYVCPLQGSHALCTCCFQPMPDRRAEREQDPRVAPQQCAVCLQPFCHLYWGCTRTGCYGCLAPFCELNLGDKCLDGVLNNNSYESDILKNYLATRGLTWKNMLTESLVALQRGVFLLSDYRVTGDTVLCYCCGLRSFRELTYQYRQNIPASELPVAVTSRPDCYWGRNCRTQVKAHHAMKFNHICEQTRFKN
# Test: co-IP; anti-GFP agarose beads (GFP-Trap) pull-down from lysates of HMEC transfected with eGFP-CHFR constructs, 48 h after transfection; 150 ug lysate protein, 2 h at 4 C; immunoblot for endogenous VE-cadherin; ratio of VE-cadherin to GFP-CHFR quantified
binder,measurement,value
B1,fold binding against WT-CHFR,2 fold
